Measurements: the RNAGym collection of RNA variant scans (doi:10.7554/elife.80360)

B1: Twister Ribozyme (parent)
chain: AACACUGCCAAUGCCGGUCCCAAGCCCGGAUAAAAGUGGAGGGGGCGG

Variants of: B1
Assay: self-cleavage, relative activity (ratio to wild type); higher = more cleavage; co-transcriptional

Compared with G24U U37G, C25A A30C is lower in self-cleavage: 0.092 for the first, 0.0625 for the second.

Compared with C25A A30G, C25A A32G is lower in self-cleavage: 0.233 for the first, 0.0602 for the second.

First: C25A A32U
Second: C25A A33C
The self-cleavage of the first is lower: 0.078 for the first, 0.0788 for the second.

First: C25A A34G
Second: C25A A34U
The self-cleavage of the first is higher: 0.1 for the first, 0.0738 for the second.

First: C25A A35C
Second: C25A A35G
The self-cleavage of the first is higher: 0.141 for the first, 0.0612 for the second.

First: C25A A35U
Second: C25A A40C
The self-cleavage of the first is higher: 0.135 for the first, 0.114 for the second.

First: C25A A40G
Second: C25A C26G
The self-cleavage of the first is lower: 0.0786 for the first, 0.0788 for the second.

First: C25A C27A
Second: C25A C46A
The self-cleavage of the first is higher: 0.0772 for the first, 0.07 for the second.

Compared with C25A C46G, C25A C46U is higher in self-cleavage: 0.0534 for the first, 0.104 for the second.

Going from C25A G28A to C25A G29A, the self-cleavage rises from 0.166 to 0.308.

First: C25A G29C
Second: C25A G29U
The self-cleavage of the first is lower: 0.0958 for the first, 0.24 for the second.

Compared with C25A G36C, C25A G38A is higher in self-cleavage: 0.0709 for the first, 0.0977 for the second.

First: C25A G38C
Second: C25A G39A
The self-cleavage of the first is higher: 0.126 for the first, 0.0801 for the second.

First: C25A G39C
Second: C25A G39U
The self-cleavage of the first is lower: 0.0833 for the first, 0.115 for the second.

Going from C25A G41A to C25A G41C, the self-cleavage rises from 0.074 to 0.106.

Compared with C25A G42C, C25A G45A is lower in self-cleavage: 0.115 for the first, 0.0857 for the second.

Compared with C25A G45C, C25A G47C is lower in self-cleavage: 0.0975 for the first, 0.0869 for the second.

Compared with C25A G47U, C25A G48C is higher in self-cleavage: 0.0657 for the first, 0.137 for the second.

First: C25A U31C
Second: C25A U31G
The self-cleavage of the first is higher: 0.138 for the first, 0.127 for the second.

Compared with C25A U37A, C25A U37G is lower in self-cleavage: 0.106 for the first, 0.0674 for the second.

Compared with C25G A30G, C25G A30U is lower in self-cleavage: 0.625 for the first, 0.31 for the second.

Compared with C25G A32U, C25G A33C is higher in self-cleavage: 0.19 for the first, 0.227 for the second.

Going from C25G A33U to C25G A34G, the self-cleavage falls from 0.246 to 0.124.

First: C25G A35U
Second: C25G C26G
The self-cleavage of the first is higher: 0.299 for the first, 0.0826 for the second.

First: C25G C26U
Second: C25G C27G
The self-cleavage of the first is lower: 0.0513 for the first, 0.0774 for the second.

First: C25G C27U
Second: C25G C46A
The self-cleavage of the first is lower: 0.136 for the first, 0.148 for the second.

First: C25G C46G
Second: C25G G28A
The self-cleavage of the first is lower: 0.223 for the first, 0.346 for the second.

First: C25G G28U
Second: C25G G29A
The self-cleavage of the first is lower: 0.259 for the first, 0.564 for the second.

First: C25G G36A
Second: C25G G36C
The self-cleavage of the first is higher: 0.103 for the first, 0.0714 for the second.

Compared with C25G G38C, C25G G39C is lower in self-cleavage: 0.229 for the first, 0.109 for the second.

First: C25G G39U
Second: C25G G41C
The self-cleavage of the first is lower: 0.121 for the first, 0.133 for the second.

First: C25G G41U
Second: C25G G42U
The self-cleavage of the first is higher: 0.133 for the first, 0.112 for the second.

Compared with C25G G43U, C25G G44C is higher in self-cleavage: 0.133 for the first, 0.248 for the second.

Going from C25G G44U to C25G G48A, the self-cleavage falls from 0.197 to 0.193.

First: C25G G48C
Second: C25G G48U
The self-cleavage of the first is lower: 0.167 for the first, 0.21 for the second.

Compared with C25G U31G, C25G U37C is lower in self-cleavage: 0.393 for the first, 0.102 for the second.

Compared with C25U A30C, C25U A32C is higher in self-cleavage: 0.53 for the first, 0.903 for the second.

First: C25U A32G
Second: C25U A33C
The self-cleavage of the first is higher: 0.804 for the first, 0.791 for the second.

First: C25U A34U
Second: C25U A35G
The self-cleavage of the first is higher: 0.633 for the first, 0.46 for the second.

Compared with C25U A35U, C25U A40G is lower in self-cleavage: 0.764 for the first, 0.121 for the second.

First: C25U C26G
Second: C25U C26U
The self-cleavage of the first is lower: 0.131 for the first, 0.132 for the second.

First: C25U C27A
Second: C25U C27G
The self-cleavage of the first is higher: 0.509 for the first, 0.101 for the second.

First: C25U C27U
Second: C25U G28C
The self-cleavage of the first is higher: 0.74 for the first, 0.412 for the second.

Compared with C25U G28U, C25U G36A is lower in self-cleavage: 0.724 for the first, 0.263 for the second.

Compared with C25U G38A, C25U G39A is lower in self-cleavage: 0.581 for the first, 0.141 for the second.

Going from C25U G41A to C25U G41U, the self-cleavage rises from 0.194 to 0.198.

First: C25U G42A
Second: C25U G42C
The self-cleavage of the first is lower: 0.148 for the first, 0.154 for the second.

Going from C25U G42U to C25U G43A, the self-cleavage rises from 0.0953 to 0.151.

Going from C25U G43C to C25U G44A, the self-cleavage rises from 0.102 to 0.811.

Going from C25U G44U to C25U G45A, the self-cleavage falls from 0.809 to 0.587.

First: C25U G45U
Second: C25U G47A
The self-cleavage of the first is lower: 0.592 for the first, 0.663 for the second.

First: C25U G47C
Second: C25U G48U
The self-cleavage of the first is lower: 0.248 for the first, 0.813 for the second.

Going from C25U U31A to C25U U31G, the self-cleavage falls from 0.666 to 0.627.

First: C25U U37G
Second: C26A A30G
The self-cleavage of the first is lower: 0.332 for the first, 0.348 for the second.

Compared with C26A A32G, C26A A33U is lower in self-cleavage: 0.636 for the first, 0.534 for the second.

Going from C26A A34C to C26A A34G, the self-cleavage rises from 0.0918 to 0.156.

First: C26A A34U
Second: C26A A35G
The self-cleavage of the first is lower: 0.177 for the first, 0.219 for the second.

Compared with C26A A35U, C26A A40C is lower in self-cleavage: 0.732 for the first, 0.119 for the second.

Compared with C26A A40U, C26A C27A is higher in self-cleavage: 0.107 for the first, 0.173 for the second.

First: C26A C46A
Second: C26A G28A
The self-cleavage of the first is higher: 0.338 for the first, 0.168 for the second.

Compared with C26A G36A, C26A G38C is higher in self-cleavage: 0.0875 for the first, 0.395 for the second.

Going from C26A G39C to C26A G41A, the self-cleavage rises from 0.0938 to 0.101.

Compared with C26A G41C, C26A G41U is higher in self-cleavage: 0.124 for the first, 0.154 for the second.

Going from C26A G42U to C26A G44A, the self-cleavage rises from 0.109 to 0.562.

First: C26A G44U
Second: C26A G45C
The self-cleavage of the first is higher: 0.456 for the first, 0.123 for the second.

Going from C26A G47U to C26A G48A, the self-cleavage rises from 0.144 to 0.304.

Going from C26A G48C to C26A G48U, the self-cleavage falls from 0.434 to 0.355.

Compared with C26A U31G, C26A U37A is lower in self-cleavage: 0.691 for the first, 0.118 for the second.

Going from C26A U37G to C26G A30C, the self-cleavage falls from 0.17 to 0.0641.

Compared with C26G A30U, C26G A32C is lower in self-cleavage: 0.295 for the first, 0.141 for the second.

First: C26G A32G
Second: C26G A33G
The self-cleavage of the first is higher: 0.316 for the first, 0.154 for the second.

First: C26G A33U
Second: C26G A34C
The self-cleavage of the first is higher: 0.135 for the first, 0.0761 for the second.

Compared with C26G A35U, C26G A40C is lower in self-cleavage: 0.497 for the first, 0.113 for the second.

First: C26G A40U
Second: C26G C27U
The self-cleavage of the first is higher: 0.12 for the first, 0.0811 for the second.

Compared with C26G C46A, C26G C46G is higher in self-cleavage: 0.153 for the first, 0.218 for the second.

Going from C26G G28A to C26G G29A, the self-cleavage rises from 0.101 to 0.132.

Compared with C26G G29C, C26G G29U is lower in self-cleavage: 0.134 for the first, 0.0569 for the second.

Going from C26G G36C to C26G G38A, the self-cleavage rises from 0.0652 to 0.0967.

First: C26G G38U
Second: C26G G39A
The self-cleavage of the first is higher: 0.0977 for the first, 0.0939 for the second.

Going from C26G G41A to C26G G42U, the self-cleavage rises from 0.128 to 0.13.

Going from C26G G43U to C26G G44C, the self-cleavage rises from 0.138 to 0.149.

Going from C26G G45U to C26G G48C, the self-cleavage rises from 0.156 to 0.229.

Going from C26G G48U to C26G U31A, the self-cleavage rises from 0.146 to 0.427.

C26G U31C gave a self-cleavage of 0.165.
